# Results reported in US20200362026A1 (INSTITUTE FOR RESEARCH IN BIOMEDICINE, published 2020).
# T1: FcγRIIa (UniProt P12318 34-317, limits assumed)
# T1 construct: whole, on cells; also called FcgRIIa; Fcγ receptor IIa
# T1 sequence (looked up): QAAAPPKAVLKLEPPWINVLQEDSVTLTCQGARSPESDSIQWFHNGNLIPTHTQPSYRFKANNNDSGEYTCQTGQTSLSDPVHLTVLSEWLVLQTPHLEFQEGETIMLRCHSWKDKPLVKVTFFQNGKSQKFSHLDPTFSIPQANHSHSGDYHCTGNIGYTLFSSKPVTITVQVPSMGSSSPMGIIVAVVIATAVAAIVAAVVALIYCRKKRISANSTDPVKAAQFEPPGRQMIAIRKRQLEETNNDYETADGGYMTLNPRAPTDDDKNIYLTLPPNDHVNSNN
# T2: FcγRIIb (UniProt P31994 43-310, limits assumed)
# T2 construct: whole, on cells; also called FcgRIIb; Fcγ receptor IIb
# T2 sequence (looked up): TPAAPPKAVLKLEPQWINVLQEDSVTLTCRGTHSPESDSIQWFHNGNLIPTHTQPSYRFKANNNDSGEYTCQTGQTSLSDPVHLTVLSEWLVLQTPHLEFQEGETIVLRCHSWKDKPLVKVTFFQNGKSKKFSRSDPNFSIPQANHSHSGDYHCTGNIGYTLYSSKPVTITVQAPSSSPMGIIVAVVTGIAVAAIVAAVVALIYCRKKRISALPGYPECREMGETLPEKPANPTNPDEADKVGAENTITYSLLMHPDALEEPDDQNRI
# T3: mouse GM-CSF (mouse, UniProt P01587 18-141)
# T3 sequence (looked up): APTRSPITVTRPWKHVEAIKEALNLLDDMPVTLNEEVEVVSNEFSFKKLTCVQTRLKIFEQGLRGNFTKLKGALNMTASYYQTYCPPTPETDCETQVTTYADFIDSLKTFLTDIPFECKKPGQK
# T4: rat GM-CSF (rat, UniProt P48750 18-144)
# T4 sequence (looked up): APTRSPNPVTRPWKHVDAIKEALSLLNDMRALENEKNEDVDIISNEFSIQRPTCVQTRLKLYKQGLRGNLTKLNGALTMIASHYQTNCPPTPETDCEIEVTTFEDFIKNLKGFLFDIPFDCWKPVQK
# What was measured:
# [1] = biological target: T5, human GM-CSF (granulocyte macrophage-colony stimulating factor) (human, UniProt P04141 18-144); assay: cell-based or functional assay
# T5 sequence (P04141 18-144 limits assumed): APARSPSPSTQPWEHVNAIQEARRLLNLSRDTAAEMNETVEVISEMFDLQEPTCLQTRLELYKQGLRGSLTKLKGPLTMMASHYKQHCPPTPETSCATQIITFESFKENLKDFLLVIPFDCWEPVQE
# [2] = biological target: T5, human GM-CSF (granulocyte …); assay: ELISA on human GM-CSF
# Protocol: All antibodies were recombinantly produced as IgG1 by transient transfection of HEK 293 Freestyle Cells (Invitrogen) using polyethylenimine (PEI). The antibodies were then tested for binding to human GM-CSF by ELISA. […] The EC50 values (ng/ml) were determined by ELISA and calculated for every sample by nonlinear regression analysis using GraphPad Prism 5 software.
# [3] = biological target: T5, human GM-CSF (granulocyte …); assay: cell-based or functional assay; remark: listed apart in the source
# [4] = biological target: T5, human GM-CSF (granulocyte …); assay: SPR (ProteOn), mAb captured on protein A, GM-CSF as analyte, Langmuir fit
# Protocol: (§1) The kinetics of binding was determined by surface plasmon resonance (SPR). […] HEPES buffered saline (HBS) (10 mM HEPES, pH 7.4, 150 mM NaCl, 3 mM EDTA, 0.005% surfactant Tween-20) was used as running buffer. All injections were made at flow rate of 100 µl/min. […] Injection time and dissociation time were 120 s and 600 s, respectively. Each binding interaction of mAbs with GM-CSF was assessed using a ProteON XPR36 instrument (Biorad) and data processed with ProteOn Manager Software. Ka, Kd and KD were calculated applying the Langmuir fit model.
# [5] = biological target: T5, human GM-CSF (granulocyte …); assay: ELISA on GM-CSF
# [6] = biological target: T1, FcγRIIa; assay: flow cytometry, TZM-bl cells expressing FcγRIIa, mAb alone (w/o GM-CSF)
# Protocol: (§2) Expression of specific FcγRs was assessed by staining TZM-b1 cells with FITC-conjugated anti-CD64 (anti-FcγRI), anti-CD32 (anti-FcγRIIa and anti-FcγRIIb) and anti-CD16 (anti-FcγRIIIa) antibodies (all from BD Pharmingen). Untrasfected and transfected TZM-b1 cells were washed with staining buffer (PBS with 10% Fetal Bovine Serum and 2 mM EDTA) and seeded in 96-well-plates at a density of 50,000 cells per well. […] The LALA versions of all antibodies and a mAb with a different specificity were included as controls. Samples were incubated at 37° C. for 30 min to allow the formation of immune complexes and then cooled down to 4° C. before adding them to TZM-b1 cells for 30 min. Cells were washed twice and stained with anti-human IgG Fcγ fragment specific F(ab′)2 fragment (Jackson ImmunoResearch). Samples were analyzed on BD FACSCanto (BD Biosciences) and median intensity fluorescence was analyzed and compared between samples.
# (§3) To address the engagement of Fcγ receptors, immune complexes formed between GM-CSF and multispecific antibodies were tested for their capacity to bind to TZM-b1 cells expressing FcγRIIa and FcγRIIb receptors. Multispecific antibodies were mixed with 0.05 μg/ml of GM-CSF, or staining buffer. Samples were incubated at 37° C. for 30 min to allow the formation of immune complexes and then cooled down to 4° C. before adding them to TZM-b1 cells for 30 minutes. Cells were washed twice and stained with anti-human IgG Fcγ fragment specific F(ab′)2 fragment. Samples were analyzed on BD FACSCanto (BD Biosciences) and median intensity fluorescence was analyzed and compared between samples.
# [7] = biological target: T2, FcγRIIb; assay: flow cytometry, TZM-bl cells expressing FcγRIIb, mAb alone (w/o GM-CSF)
# Protocol: as §2, §3
# [8] = biological target: T1, FcγRIIa; assay: flow cytometry, TZM-bl cells expressing FcγRIIa, immune complex with low GM-CSF
# Protocol: as §2, §3
# [9] = biological target: T2, FcγRIIb; assay: flow cytometry, TZM-bl cells expressing FcγRIIb, immune complex with low GM-CSF
# Protocol: as §2, §3
# [10] = biological target: T1, FcγRIIa; assay: flow cytometry, TZM-bl cells expressing FcγRIIa, immune complex with high GM-CSF
# Protocol: as §3
# [11] = biological target: T2, FcγRIIb; assay: flow cytometry, TZM-bl cells expressing FcγRIIb, immune complex with high GM-CSF
# Protocol: as §2, §3
# [12] = biological target: T1, FcγRIIa; assay: flow cytometry, TZM-bl FcγRIIa cells; average ratio of binding in presence and in absence of GM-CSF
# Protocol: as §3
# [13] = biological target: T2, FcγRIIb; assay: flow cytometry, TZM-bl FcγRIIb cells; average ratio of binding in presence and in absence of GM-CSF
# Protocol: as §2, §3
# [14] = biological target: T5, human GM-CSF (granulocyte …); assay: SPR; GM-CSF injected at 400, 200, 100, 50, 25 nM and buffer over Ts1GC1; 120 s association, 600 s dissociation
# Protocol: as §1
# All multispecific antibodies were tested for binding to GM-CSF by ELISA.
# [15] = biological target: T3, mouse GM-CSF; assay: ELISA
# [16] = biological target: T4, rat GM-CSF; assay: ELISA
EC50 [2],"IC90 less stringent conditions (50 pg/ml GM-CSF, 1,000 TF-1/well) [3]","IC90 more stringent conditions (500 pg/ml GM-CSF, 1,000 TF-1/well) [3]","IC90 stringent conditions (50 pg/ml GM-CSF, 10,000 TF-1/well) [3]","IC90 very stringent conditions (500 pg/ml GM-CSF, 10,000 TF-1/well) [3]",Kd [4],koff [4],kon [4],binding result [15],binding result [16],further results,Binder
0.0753 µg/mL,0.177 µg/mL,1.97 µg/mL,0.798 µg/mL,19.8 µg/mL,0.24 nM,7.7e-05 s⁻¹,310000 M⁻¹ s⁻¹,,,"fold greater concentration than Ts1GC2a, less stringent conditions [1]: 690 fold","Namilumab (antibody, V domains shown) VH: QVQLVQSGAEVKKPGASVKVSCKAFGYPFTDYLLHWVRQAPGQGLEWVGWLNPYSGDTNYAQKFQGRVTMTRDTSISTAYMELSRLRSDDTAVYYCTRTTLISVYFDYWGQGTMVTVSS VL: DIQMTQSPSSVSASVGDRVTIACRASQNIRNILNWYQQRPGKAPQLLIYAASNLQSGVPSRFSGSGSGTDFTLTINSLQPEDFATYYCQQSYSMPRTFGGGTKLEIK"
,0.000352 µg/mL,0.00296 µg/mL,0.000283 µg/mL,0.00281 µg/mL,,,,,,EC50 [5]: 0.027 µg/mL; MFI [6]: 52400 MFI; MFI [7]: 350000 MFI; MFI [8]: 118000 MFI; MFI [9]: 528000 MFI; MFI [10]: 216000 MFI; MFI [11]: 1.23e+06 MFI; Average RATIO FcgRIIa [12]: 3.18 ratio; Average RATIO FcgRIIb [13]: 2.51 ratio; Kd [14]: 0.0875 nM; koff [14]: 3.46e-05 s⁻¹; kon [14]: 395000 M⁻¹ s⁻¹,"Ts1GC1 trispecific antibody (antibody, human IgG1, kappa, Trispecific hexavalent IgG1, construct type Ts1; specificities GCA21 + GCA7 + GCB59; also called TsGC1) heavy: not shown light: DIQMTQSPSTLSTSVGDRVTITCRASQNILNWLAWYQQKPGNAPNLLIYKASDLQSGVPSRFSGSGSGTEFTLTISSLQPDDFATYYCQHYNSYPLTFGGGTKVEIKRTVAAPSVFIFPPSDEQLKSGTASVVCLLNNFYPREAKVQWKVDNALQSGNSQESVTEQDSKDSTYSLSSTLTLSKADYEKHKVYACEVTHQGLSSPVTKSFNRGEC"
0.187 µg/mL,,,,,0.38 nM,6e-05 s⁻¹,240000 M⁻¹ s⁻¹,no binding,no binding,,"GCA7 (antibody, human IgG1, kappa, V domains shown, also called GCA7 antibody) VH: GVQLVQSGGGLVQPGGSLRLSCAASGFTVSTNYMSWVRQAPGKGLEWVSILYAGGVTRYADSVKTRFTISRDNSKNTLFLQMNALSAEDTAIYYCAKHYDSGYSTIDHFDSWGQGTLVTVSS VL: not shown"
0.0594 µg/mL,,,,,0.69 nM,0.00065 s⁻¹,950000 M⁻¹ s⁻¹,no binding,no binding,,"GCA21 (antibody, IgG1, V domains shown, also called GCA21 antibody) VH: QVQLMESGGGVVQPGRSLRLSCSAFGFTFSNYPMHWVRQAPGKGLEWVAIILPDGNRKNYGRSVTGRFTISRDNSNNSLYLQMNNLTTEDTAMYYCTRDGTYYSNGGVYQTYRRFFDFWGRGTLVTVSS VL: DIQMTQSPSTLSTSVGDRVTITCRASQNILNWLAWYQQKPGNAPNLLIYKASDLQSGVPSRFSGSGSGTEFTLTISSLQPDDFATYYCQHYNSYPLTFGGGTKVEIKR"
0.308 µg/mL,,,,,0.68 nM,0.0012 s⁻¹,1.7e+06 M⁻¹ s⁻¹,no binding,no binding,,"GCB59 (antibody, IgG1, V domains shown, also called GCB59 antibody) VH: EVQLVESGGDLVKAGGSLRLSCAVSGLSFSSSGMNWVRQAPGKGLEWISSISGSQNYKYYADSVKGRFVVSRDNARNFLYLQMDSLRAEDTAVYFCVGGFPYWLPPSDFSGFHVWGQGTTVTVSS VL: SYVLTQPPSVSVAPGQTASLTCGGTNIGSKSVHWYQQKAGQAPVLVVYADNDRPSGVPERFSGSNSGNTATLTISRVEAEDESDYFCQVWDGNTDHVVFGGGTKLTVLG"
0.0614 µg/mL,,,,,0.18 nM,0.00011 s⁻¹,660000 M⁻¹ s⁻¹,no binding,no binding,,"GCE536 (antibody, human IgG1, kappa, V domains shown, also called GCE536 antibody) VH: QLQLVQSGTEVKKPGASVKVSCKSSGYVFTSYYLVWVRQAPGQGLEWMATISPGDVNTSYEQRFQGRVTVTTDASTNTVDMELRSLRSEDTAVYYCARGPRSKPPYLYFALDVWGQGTAVTVSS VL: EIVLTQSPGTLSLSPGETAILSCRASQSVSSSLLAWYQQKPGQAPRLLIYGASNRATGIRGRFSGSGSGTDFTLTISRLEPEDFVLYYCQHYGSRVTFGQGTKLEIKR"
